Measured values from article PMC4204856, “Application of a Novel Alkali-Tolerant Thermostable DyP-Type Peroxidase from Saccharomonospora viridis DSM 43017 in Biobleaching of Eucalyptus Kraft Pulp” (PLoS ONE, 2014).

Assays:
purified protein [1] = substrate: CCN(CC)c1ccc(C(=C2C=CC(=[N+](CC)CC)C=C2)c2ccccc2)cc1; test: purified protein; format: biochemical, Saccharomonospora viridis; details: H2O2 co-substrate (0.1 mM in all tests), 50 mM phosphate pH 7.0, standard assay 60°C, temperature of kinetics not stated
purified protein [2] = substrate: Nc1c(S(=O)(=O)O)cc(Nc2cccc(S(=O)(=O)CCOS(=O)(=O)O)c2)c2c1C(=O)c1ccccc1C2=O; test: purified protein; format: biochemical, Saccharomonospora viridis; details: H2O2 co-substrate (0.1 mM in all tests), 50 mM phosphate pH 7.0, standard assay 60°C, temperature of kinetics not stated

B1: SviDyP (Saccharomonospora viridis) (protein)
chain: MKGRRFGRRAFLATGAAALGGAAALGGRELFTGDGGADGRDRPDRGDIGRATVDFHGERQAGVATPAQAFATFVAFDLLDGVDREALIRWMRVWTDDIERLTRGAPALTDTEPELALLPARLTVTVGFGPGFLAAAGREELRPSWLAPLPEFPIDRLREEFSGGDLVAQVCADDEVTVAHAVRVLTKQARSFARPRWVQRGFRNTPGAVPEGATMRNLMGQLDGTRNLRPGPDDRLIWISDGPEWLRGGTGMVVRRIAMNLDTWDELDRPARELVIGRRLDNGAPLTGRHEHDEPDLEAVDERGLSVIPMFAHIRRARSDNPDERFLRRSYNYDDPPEPGELSNSGLVFVTFQADIEAQFTPIQRRLAELDSLNDWTTPIGSAVFAVPRGCRPGEYLGQPLLEA
notes: Ni-NTA and Sephadex G-75; tag removal not mentioned; ~45 kDa on SDS-PAGE
Km (purified protein [1]): 58.87 ± 4.7 µM | Km (purified protein [2]): 210.2 ± 16.5 µM
